This is an account of results in PMC9891371.

The target of test [1] is ZE-mi3 cage (His tag and ZE fused to the N-terminus of the designed protein cage mi3). The test is described as follows: native gel or EMSA. For orientation: Mobility shift assays separate free from complexed probe on a gel.
In test [2] the target is ZE-fused ferritin, C-terminal fusion (HF-ZE) cage (human). The test is described as follows: TEM + native gel or EMSA.
The target in test [3] is ZE-mi3 cage (His tag and ZE fused to the N-terminus of the designed protein cage mi3). The test is described as follows: TEM.
Test [4] concerns the target ZE-fused ferritin, N-terminal fusion (ZE-HF) cage (human). The test is described as follows: TEM.
The target is the same in test [5]. The test is described as follows: native gel or EMSA.
Test [6] concerns the target C-terminal ZR-fused ferritin (HF-ZR) cage, 15 residue linker (human). The test is described as follows: negative-stain TEM.

Several values for one entry are separate records, joined by “and”; a condition that tells them apart may be missing. Identical values can stand only once.

“C-terminal ZR-fused ferritin (HF-ZR) cage, 15 residue linker (designed binder)” returned a stoichiometry N (HF-ZR cages per ZE-mi3 cage) in test [1] of 12. Besides, in test [2], the stoichiometry N (HF-ZR cages per HF-ZE cage) was 1 and 3. Besides, in test [3], the stoichiometry N (HF-ZR cages per mi3 cage) turned out to be 12. Moreover, the stoichiometry N (HF-ZR cages per ZE-HF cage) in test [4] was 4 and 6.

Regarding “GFP-ZR (ZR fusion to the GFP C-terminus) (designed binder)”, the stoichiometry N (GFPs per ferritin cage) in test [5] fell in the range of 20 to 24.

In the case of ZE-GFP (ZE-fused GFP) (designed binder), the stoichiometry N (GFPs observed per cage) in test [6] is 1 and 3.
